Test results: US20160017326A1, “MICRORNAS AS FUNCTIONAL MEDIATORS AND BIOMARKERS OF BONE METASTASIS” (THE TRUSTEES OF PRINCETON UNIVERSITY, priority 2013, published 2016)

Assays:
[1] = test system: miRNA expression in RAW264.7 cells; test: qRT-PCR of osteoclast miRNA expression after sICAM1 treatment; format: cell-based, murine; details: for sICAM1-induced miRNA expression changes: 50 ng/ml sICAM1, 20 μM inhibitor, 6 days
Description: (§1) mRNA was analyzed by synthesizing cDNA using the Superscript III First-strand kit (Invitrogen) and qPCR performed using the Power SYBR® green PCR master mix (Applied Biosystems). Mature miRNAs were reverse transcribed using the TaqMan Reverse Transcription Kit (Applied Biosystems) followed by real-time PCR using TaqMan miRNA assays (Applied Biosystems). All analysis was performed using an ABI 7900HT PCR machine according to the manufacturer's instructions. A standard curve was created from serial dilutions from cDNA for each gene of interest. Values were normalized by the expression of GAPDH or RNU6B in each sample.

RANKL = test: cell-based or functional assay
[2] = test system: Pu.1, Nfatc1, Ctsk in RAW264.7 cells; test: Western blot of Pu.1, Nfatc1, Ctsk after miRNA transfection and RANKL; format: cell-based, murine; details: transient miRNA transfection, 50 ng/ml RANKL
Description: SDS lysis buffer (0.05 mM Tris-HCl, 50 mM BME, 2% SDS, 0.1% Bromophenol blue, 10% glycerol) was used to collect protein from cells. Samples were sonicated and heat denatured protein was equally loaded, separated on a 10% SDS-page gel, transferred onto a pure nitrocellulose membrane (BioRad), and blocked with 5% milk. Primary antibodies for immunoblotting included: anti-IκBα (1:1000 dilution, Cell signaling, 44D4), anti-p-p65 (1:500 dilution, Santa Cruz Biotechnology), anti-Pu.1 (5 μg/ml, Abcam, AB88082), anti-Nfatc1 (1 μg/ml, Abcam, AB25916), anti-Ctsk (4 μg/ml, Abcam, AB19027), anti-β-actin (1:5000 dilution, ABcam), for loading control. Membranes were incubated with horseradish peroxidase (HRP)-conjugated anti-mouse secondary antibody (1:2000 dilution, GE Healthcare) or anti-rabbit secondary antibody (1:2000 dilution, GE Healthcare) for 1 h and chemiluminescence signals were detected by ECL substrate (GE Healthcare).
To better examine the capacity of the miRNAs to inhibit osteoclast differentiation, osteoclast markers were examined in RAW264.7 cells transfected with the miRNA of interest, followed by RANKL treatment. FIG. 5F illustrates Western blot analysis for Pu.1, Nfatc1, or Ctsk in RAW264.7 cells after transient transfection with indicated miRNA and treatment with 50 ng/ml RANKL. Data in the figure represent average ±SEM; p values were based on Student's t-test.

RAW264.7 cells [3] = test: In vitro bone resorption assay on bovine bone slices; format: cell-based, murine; details: miRNA transfection, 50 ng/ml RANKL, relative to control cells
Description: 5×10^4 pre-osteoclast cells were seeded onto 1 mm thick slices of bovine bone cut using a diamond saw and sterilized by immersion in 70% ethanol. Cells were cultured for 10 days as indicated in 6-well plates, transferred to fresh plates and washed to remove osteoclasts. Bone slices were stained in a solution of 1% toludine blue in 0.5% sodium tetraborate, destained in PBS plus 1% Triton X-100, and imaged by light microscopy.
In vitro bone resorption assay was then used to measure the effect of ectopic miRNA expression on osteoclast activity. […] Referring to this figures, scale bar represents 200 μm. Results were statistically significant with p<0.01 (**) and p<0.001 (***). […] Since these miRNAs may inhibit osteoclast differentiation or function by targeting different mRNAs, the repression of osteoclast differentiation was further examined using combinations of inhibitory miRNAs. Given that transient transfection with 10 pM of miRNA precursors was sufficient to inhibit up to approximately 90% of osteoclast differentiation, RAW264.7 cells were treated with a combination of miRNAs at a reduced concentration of 1 pM total precursors.

RAW264.7 cells [4] = test: RANKL-induced osteoclast differentiation, TRAP staining; format: cell-based, murine; details: for osteoclast differentiation / TRAP+ osteoclasts: 6 days
Description: HeLa and RAW264.7 cells (American Type Culture Collection, ATCC) were maintained in Dulbecco's modified Eagle's medium (DMEM) supplemented with 10% fetal bovine serum (FBS), penicillin/streptomycin (GIBCO), and fungizone. MOCP-5 cells were maintained in αMEM with 10% FBS and antibiotics. MDA-MB-231 parental cells (ATCC) and all sublines (SCP2, SCP4, SCP6, SCP28, SCP46) were maintained in DMEM with 10% FBS and antibiotics. The murine 4T1 and 4T1.2 cells, and human TSU-Pr1, and TSU-PR1-B2 cells were similarly maintained in DMEM with 10% FBS and antibiotics. For osteoclast differentiation assays, cells were treated with indicated concentration of RANKL in DMEM plus 10% FBS, with media changes performed every 2 days. Primary osteoclasts were isolated from bone marrow cells flushed from the tibia of 6-week-old wild type Balb/c mice and filtered through a […] cell-strainer before overnight culture in aMEM with 10% FBS. The following day 1×10^6 non-adherent cells were plated in 6-well plates supplemented with 50 ng/mL M-CSF for 2 days, followed by 50 ng/mL RANKL for an additional 4-5 days, with media changes every 2 days. Human osteoclasts were obtained from Lonza (2T-110) and differentiated by treatment with 33 ng/ml M-CSF and 66 ng/ml RANKL. CM was collected from the indicated sub-confluent tumor cells grown in DMEM with […] for 24 hours. The CM was passed through a 0.2 μm filter before addition to 1×10^5 RAW264.7 or MOCP-5 cells in a 6-well plate. The media was replaced with fresh CM daily. Cells were TRAP stained on day 6 using a leukocyte acid phosphatase kit (Sigma) and TRAP^+-multineucliated cells were quantified as mature osteoclasts. […]

RAW264.7 cells [5] = test: Chemotaxis assay of RAW264.7 cells; format: cell-based, murine; details: series of sICAM1 concentrations
Description: Chemotaxis assay was performed as described (Lu et al., 2011) with the following modifications: 10^5 RAW264.7 cells in 100 μl of 0.5% BSA in DMEM were seeded into the upper chamber of 8 μm pore transwell inserts (BD Bioscience) in a 24-well plate. 300 μl of 0.5% BSA in DMEM containing a series of concentrations of recombinant ICAM1 (R&D Systems) was added to the bottom chamber. After 8 h in culture, methanol was added to the bottom chamber to fix migrated cells. Cells in the upper chamber were removed with a cotton swab and stained for 30 mins in 0.2% crystal violet for quantification using a microscope.

[6] = test system: osteoclast marker genes in RAW264.7 cells; test: qRT-PCR of osteoclast marker genes; format: cell-based, murine; details: sICAM1 together with 50 ng/ml RANKL versus RANKL alone
Description: as §1

O=C(Nc1cc(Cl)cc2c1[nH]c1cnccc12)c1cccnc1 [PS1145]
sICAM1-induced miRNA expression changes [1]: abrogated | sICAM1-induced miRNA expression changes ([1]; listed as PS1154): higher levels of miRNA expression

OPG (receptor)
decrease in osteoclast differentiation of RAW264.7 cells induced by 30 ng/ml RANKL, with 200 ng/ml OPG (RANKL): > 80%

B1: miR-33a: miRNA, SEQ ID NO: 74; delivered as pre-miRNA precursor; down-regulated during osteoclastogenesis (nucleic acid, listed as Homo sapiens)
chain: CUGUGGUGCAUUGUAGUUGCAUUGCAUGUUCUGGUGGUACCCAUGCAAUGUUUCCACAGUGCAUCACAG
modifications: pre-miRNA precursor hairpin, chemistry not given here
expression of Pu.1, Nfatc1, Ctsk (Western blot) [2]: retained expression of all three osteoclast genes | bone resorption (osteoclast activity) (RAW264.7 cells [3]): only a small decrease in bone resorption | osteoclast maturation and activity (RAW264.7 cells [4]; all models tested): Partial inhibition

B2: sICAM1: soluble ICAM1, the cleaved extracellular domain of ICAM1; recombinant ICAM1 (R&D Systems, 796-IC-050) (protein)
chain: QVSIHPREAFLPQGGSVQVNCSSSCKEDLSLGLETQWLKDELESGPNWKLFELSEIGEDSSPLCFENCGTVQSSASATITVYSFPESVELRPLPAWQQVGKDLTLRCHVDGGAPRTQLSAVLLRGEEILSRQPVGGHPKDPKEITFTVLASRGDHGANFSCRTELDLRPQGLALFSNVSEARSLRTFDLPATIPKLDTPDLLEVGTQQKLFCSLEGLFPASEARIYLELGGQMPTQESTNSSDSVSATALVEVTEEFDRTLPLRCVLELADQILETQRTLTVYNFSAPVLTLSQLEVSEGSQVTVKCEAHSGSKVVLLSGVEPRPPTPQVQFTLNASSEDHKRSFFCSAALEVAGKFLFKNQTLELHVLYGPRLDETDCLGNWTWQEGSQQTLKCQAWGNPSPKMTCRRKADGALLPIGVVKSVKQEMNGTYVCHAFSSHGNVTRNVYLTVLYHSQNN
RAW264.7 cell migration (RAW264.7 cells [5]): increased migration in a dose dependent manner | expression of miRNAs downregulated during osteoclastogenesis ([1]; 50 ng/ml sICAM1, magnified after co-treatment with RANKL): significant inhibition | time course of osteoclast marker gene expression [6]: reduced the time necessary for osteoclast differentiation | osteoclast differentiation (RAW264.7 cells [4]; 50 ng/ml sICAM1 alone): not sufficient to induce differentiation | time to osteoclast differentiation (RAW264.7 cells [4]; 50 ng/ml sICAM1 and 50 ng/ml RANKL together): ≤ 2 days | osteoclast differentiation (RAW264.7 cells [4]; 50 ng/ml sICAM1 combined with 10 ng/ml RANKL): additive effect | TRAP+ osteoclasts (RAW264.7 cells [4]; 50 ng/ml sICAM1 with 4 ng/ml RANKL): high levels | TRAP+ osteoclasts (RAW264.7 cells [4]; low levels of sICAM1 with 4 ng/ml RANKL): no effect
